This note sets out measurements from patent US20210115458.

This data set has as its system T1, JUL1 (bead-immobilized for Kd assay) (Arabidopsis thaliana).
T1 sequence: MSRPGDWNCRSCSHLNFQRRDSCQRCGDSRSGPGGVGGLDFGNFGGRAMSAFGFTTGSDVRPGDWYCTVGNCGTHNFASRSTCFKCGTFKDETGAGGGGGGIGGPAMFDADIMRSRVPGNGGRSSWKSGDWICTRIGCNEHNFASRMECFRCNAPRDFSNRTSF
Particulars: FAM-RNA bead fluorescence assay.

Where two headings read alike, the source gives them in different places.

In the case of SMXL5 5' UTR G-quadruplex-forming motif, the Kd by setting is: (with potassium (folded G4)) 230 nM; (without potassium) 130 nM.
